Tests used:
[1] = compound: CCc1ncccc1Oc1cc(Sc2ccccn2)cnc1NC(=O)NCCO; assay: (§1) Activation of purified human glucokinase isoform 3 (13 to 466 aa) assessed as Vmax by spectrophotometry in presence of varying concentration of glucose relative to control
[2] = compound: CCc1ncccc1Oc1cc(Sc2ccccn2)cnc1NC(=O)NCc1ccccc1O; assay: as §1
[3] = compound: CNC(=O)Nc1ncc(SC2CCN(S(C)(=O)=O)CC2)cc1Oc1cccnc1C; assay: as §1
[4] = compound: CCc1ncccc1Oc1cc(Sc2ccccn2)cnc1NC(=O)NCc1ccccn1; assay: as §1
[5] = compound: CCc1ncccc1Oc1cc(Sc2ccccn2)cnc1NC(=O)NC(C)C; assay: as §1
[6] = compound: CNC(=O)Nc1ncc(SC2CCN(C(C)=O)CC2)cc1Oc1cccnc1C; assay: as §1
[7] = compound: CCc1ncccc1Oc1cc(Sc2ccccn2)cnc1NC(=O)NCc1cccc(O)c1; assay: as §1
[8] = compound: CCOC(=O)Nc1ncc(Sc2ccccn2)cc1Oc1cccnc1CC; assay: as §1
[9] = compound: CCc1ncccc1Oc1cc(Sc2ccccn2)cnc1NC(N)=O; assay: as §1
[10] = compound: CNC(=O)Nc1ncc(SC2CCOCC2)cc1Oc1cccnc1C; assay: as §1
[11] = compound: CNC(=O)Nc1ncc(Sc2ccccn2)cc1Oc1c(C)n[nH]c1C; assay: as §1
[12] = compound: CCc1ncccc1Oc1cc(Sc2ccccn2)cnc1NC(=O)NCc1cccnc1; assay: as §1
[13] = compound: CNC(=O)Nc1ncc(SCCCOC)cc1Oc1cccnc1C; assay: as §1
[14] = compound: CNC(=O)Nc1ncc(SCc2ccccn2)cc1Oc1cccnc1C; assay: as §1
[15] = compound: CNC(=O)Nc1ncc(SCCCO)cc1Oc1cccnc1C; assay: as §1
[16] = compound: CCc1ncccc1Oc1cc(Sc2ccccn2)cnc1NC=O; assay: as §1
[17] = compound: CNC(=O)Nc1ncc(Sc2ccccn2)cc1Oc1cccnc1C; assay: as §1
[18] = compound: CCc1ncccc1Oc1cc(Sc2ccccn2)cnc1NC(=O)NCc1ccncc1; assay: as §1
[19] = compound: CNC(=O)Nc1ncc(SCc2ccccc2)cc1Oc1cccnc1C; assay: as §1
[20] = compound: CCc1ncccc1Oc1cc(Sc2ccccn2)cnc1NC(C)=O; assay: as §1
[21] = compound: CNC(=O)Nc1ncc(SC2CCN(C(=O)OC(C)(C)C)CC2)cc1Oc1cccnc1C; assay: as §1
[22] = compound: CCc1ncccc1Oc1cc(Sc2ccccn2)cnc1NC(=O)NCc1ccc(O)cc1; assay: as §1
[23] = compound: CCn1nccc1Oc1cc(Sc2ccccn2)cnc1NC(=O)NC; assay: as §1
[24] = compound: CCc1ncccc1Oc1cc(Sc2ccccn2)cnc1NC(=O)NC; assay: as §1
[25] = compound: CCNC(=O)Nc1ncc(Sc2ccccn2)cc1Oc1cccnc1CC; assay: as §1
[26] = compound: CNC(=O)Nc1ncc(SCC2CCOCC2)cc1Oc1cccnc1C; assay: as §1

B1: Hexokinase-4 (Homo sapiens), P35557 (protein)
chain: MLDDRARMEAAKKEKVEQILAEFQLQEEDLKKVMRRMQKEMDRGLRLETHEEASVKMLPTYVRSTPEGSEVGDFLSLDLGGTNFRVMLVKVGEGEEGQWSVKTKHQMYSIPEDAMTGTAEMLFDYISECISDFLDKHQMKHKKLPLGFTFSFPVRHEDIDKGILLNWTKGFKASGAEGNNVVGLLRDAIKRRGDFEMDVVAMVNDTVATMISCYYEDHQCEVGMIVGTGCNACYMEEMQNVELVEGDEGRMCVNTEWGAFGDSGELDEFLLEYDRLVDESSANPGQQLYEKLIGGKYMGELVRLVLLRLVDENLLFHGEASEQLRTRGAFETRFVSQVESDTGDRKQIYNILSTLGLRPSTTDCDIVRRACESVSTRAAHMCSAGLAGVINRMRESRSEDVMRITVGVDGSVYKLHPSFKERFHASVRRLTPSCEITFIESEEGSGRGAALVSAVACKKACMLGQ
- Vmax [1]: 66%
- Vmax [2]: 84%
- Vmax [3]: 54%
- Vmax [4]: 72%
- Vmax [5]: Not active
- Vmax [6]: 59%
- Vmax [7]: 68%
- Vmax [8]: Not active
- Vmax [9]: 77%
- Vmax [10]: 73%
- Vmax [11]: 53%
- Vmax [12]: 75%
- Vmax [13]: 87%
- Vmax [14]: 146%
- Vmax [15]: 80%
- Vmax [16]: 104%
- Vmax [17]: 74%
- Vmax [18]: 73%
- Vmax [19]: 76%
- Vmax [20]: Not active
- Vmax [21]: 75%
- Vmax [22]: 66%
- Vmax [23]: 90%
- Vmax [24]: 77%
- Vmax [25]: 64%
- Vmax [26]: 88%

From ChEMBL document CHEMBL3352420, “Discovery of 2-pyridylureas as glucokinase activators” (J Med Chem, 2014)
